In the experiment the target is GAL4 DNA binding protein only (pGBT9) (Saccharomyces cerevisiae (strain ATCC …, UniProt P04386)). The experiment in a line: yeast two-hybrid, mating with control baits.

B1: clone 126-2 (partial cDNA of the mouse homologue of Bap-1, fused to the VP16 activation domain) (other)
chain: SGAEDNGDSSHCSNASTHSNQEAGPSNKRTKTSDDSGLDLDNNNAGVAIDPVMDGASEIELVFRPHPTLMEKDDSAQTRYIKTSGNATVDHLSKYLAVRLALEELRSKV
For B1, the binding result was “no binding”.
